{
  "source": "patent US20130040853A1",
  "about": "“Context Specific Genetic Screen Platform to Aid in Gene Discovery and Target Validation” (Dana-Farber Cancer Institute Inc., priority 2010, published 2013)",
  "key": {"[1]": {"test_system": "HMEL-BRAF^V600E melanocytes", "experiment": "In vivo functional genetic screen and secondary validation: kinase-transduced HMEL cells implanted in nude mice", "set-up": "species or system human", "conditions": "WT or mutant kinase expressed individually", "source_text": "A ‘cancer-kinase’ library was constructed containing sequence-verified ORFs in a lentiviral vector for 110 of the 120 kinases reported to sustain somatic driver mutations in diverse human cancers. This library was pooled and introduced into a human HMEL-BRAF^V600E melanocyte model system engineered with BRAF^V600E and TERT as well as p53DD and CDK4-R24C to inactivate the […] pathways, respectively. The HMEL-BRAF^V600E melanocyte profile, while representing the most common clinically-definable genetic profile in human melanoma, is insufficient to drive efficient melanoma formation following orthotopic transplantation in the skin (penetrance of 10% and latency of 26 weeks). In contrast, 40% of HMEL-BRAF^V600E melanocytes transduced with the cancer kinase pools developed tumors with an average latency of 13 weeks (range 10-18 weeks).\nIn vivo functional genetic screens: Lentivirus were prepared by co-transfecting 293T cells with individual vector backbones and standard virus packaging systems for subsequent collection of viral supernatants. Viral supernatants were then pooled randomly to generate 8 pools of high-titer lentiviral stocks. HMEL cells were transduced with either GFP control lentivirus or each representative lentiviral pool in the presence of 8 ug/ml polybrene (Company). Infected cells were expanded, mixed 1:1 with Matrigel (BD Bioscience) and then subcutaneously implanted in female nude animals (Taconic) at 1×10^6 cells per site on both flanks. Primary INK4A/ARF−/−, PTEN−/− murine astrocytes were transduced with either GFP control lentivirus or each representative lentiviral pool in the presence of 8 ug/ml polybrene (Company). Infected cells were expanded implanted into the brain parenchyma of female SCID mice (Charles River). Briefly, SCID mice were anesthetized and placed into a stereotactic apparatus equipped with a Z axis (Stoelting). A small hole was bored in the skull 0.5 mm anterior and 3.0 mm lateral to the bregma using a dental drill. Twenty thousand cells in Hank's Buffered Salt Solution were injected into the right caudate nucleus 2 mm below the surface of the brain using a 10-ul Hamilton syringe with an unbeveled 30 gauge needle. The scalp was closed using a 9-mm Autoclip Applier. Animals were followed daily for the development of subQ tumors or signs of neurological deficits. Animals were sacrifice, tumors were harvested, genomic DNA was prepared and kinases expressed in each tumor identified using PCR sequencing using plasmid specific CMV and V5 primers. Expression of each kinase was further validated by western blot analysis. Kinases expressed in each tumor were then enlisted into secondary validation screens in which stable HMEL or mouse astrocyte lines were generated expressing each kinase individually. Cells were again expanded and then implanted in female nude or SCID animals. All mice were housed and treated in accordance with protocols approved by the institutional care and use committees for animal research at the Dana-Farber Cancer Institute."}, "cJUN phosphorylation": {"test_system": "cJUN phosphorylation", "experiment": "JNK Kinase Assay (WT and mutant kinases immunoprecipitated from HMEL cells)", "type": "biochemical, human", "conditions": "as reported by level of cJUN phosphorylation; for MAP2K4/7 first incubated with inactive JNK2"}},
  "data": [
    {"molecule": "MAP2K4 p.Q142L: MAP2K4 somatic driver mutant, observed in colorectal adenocarcinoma (protein, UniProt P45985 2-399, looked up, variant Q142L) Dual specificity …: AAPSPSGGGGSGGGSGSGTPGPVGSPAPGHPAVSSMQGKRKALKLNFANPPFKSTARFTLNPNPTGVQNPHIERLRTHSIESSGKLKISPEQHWDFTAEDLKDLGEIGRGAYGSVNKMVHKPSGQIMAVKRIRSTVDEKELKQLLMDLDVVMRSSDCPYIVQFYGALFREGDCWICMELMSTSFDKFYKYVYSVLDDVIPEEILGKITLATVKALNHLKENLKIIHRDIKPSNILLDRSGNIKLCDFGISGQLVDSIAKTRDAGCRPYMAPERIDPSASRQGYDVRSDVWSLGITLYELATGRFPYPKWNSVFDQLTQVVKGDPPQLSNSEEREFSPSFINFVNLCLTKDESKRPKYKELLKHPFILMYEERAVEVACYVCKILDQMPATPSSPMYVD", "values": [
      {"measurement": "Tumorigenicity in vivo", "setting": "[1]", "value": "YES"},
      {"measurement": "Kinase Activity", "setting": "cJUN phosphorylation", "value": 4, "unit": "X"}
    ]},
    {"molecule": "MAP2K4 p.R154W: MAP2K4 somatic driver mutant, observed in colorectal adenocarcinoma (protein, UniProt P45985 2-399, looked up, variant R154W) Dual specificity …: AAPSPSGGGGSGGGSGSGTPGPVGSPAPGHPAVSSMQGKRKALKLNFANPPFKSTARFTLNPNPTGVQNPHIERLRTHSIESSGKLKISPEQHWDFTAEDLKDLGEIGRGAYGSVNKMVHKPSGQIMAVKRIRSTVDEKEQKQLLMDLDVVMWSSDCPYIVQFYGALFREGDCWICMELMSTSFDKFYKYVYSVLDDVIPEEILGKITLATVKALNHLKENLKIIHRDIKPSNILLDRSGNIKLCDFGISGQLVDSIAKTRDAGCRPYMAPERIDPSASRQGYDVRSDVWSLGITLYELATGRFPYPKWNSVFDQLTQVVKGDPPQLSNSEEREFSPSFINFVNLCLTKDESKRPKYKELLKHPFILMYEERAVEVACYVCKILDQMPATPSSPMYVD", "values": [
      {"measurement": "Tumorigenicity in vivo", "setting": "[1]", "value": "YES"},
      {"measurement": "Kinase Activity", "setting": "cJUN phosphorylation", "value": 3, "unit": "X"}
    ]},
    {"molecule": "JNK1 P.G171S: JNK1 somatic mutant, observed in renal clear cell carcinoma (protein, UniProt P45983 1-427, looked up, variant G171S) Mitogen-activated protein …: MSRSKRDNNFYSVEIGDSTFTVLKRYQNLKPIGSGAQGIVCAAYDAILERNVAIKKLSRPFQNQTHAKRAYRELVLMKCVNHKNIIGLLNVFTPQKSLEEFQDVYIVMELMDANLCQVIQMELDHERMSYLLYQMLCGIKHLHSAGIIHRDLKPSNIVVKSDCTLKILDFSLARTAGTSFMMTPYVVTRYYRAPEVILGMGYKENVDLWSVGCIMGEMVCHKILFPGRDYIDQWNKVIEQLGTPCPEFMKKLQPTVRTYVENRPKYAGYSFEKLFPDVLFPADSEHNKLKASQARDLLSKMLVIDASKRISVDEALQHPYINVWYDPSEAEAPPPKIPDKQLDEREHTIEEWKELIYKEVMDLEERTKNGVIRGQPSPLGAAVINGSQHPSSSSSVNDVSSMSTDPTLASDTDSSLEAAAGPLGCCR", "values": [
      {"measurement": "Tumorigenicity in vivo", "setting": "[1]", "value": "YES"},
      {"measurement": "Kinase Activity", "setting": "cJUN phosphorylation", "value": 1, "unit": "X"}
    ]}
  ]
}
